# Results published in patent publication US20250084182A1 (R P SCHERER TECHNOLOGIES, published 2025).
# B1: MUC1 gB06 (antibody, V domains shown)
# VH: EVQLVQSGAEVKKPGATVKISCKVSGYTFTDHTMHWIKQRPGKGLEWMGYFYPRDDSTNYNEKFKGRVTLTADKSTDTAYMELSSLRSEDTAVYYCARGLRYALDYWGQGTLVTVSS
# VL: EIVLTQSPATLSLSPGERATLSCRASSSVSSSYLYWYQQKPGQAPRLWIYGTSNLASGVPARFSGSGSGTDYTLTISSLEPEDAAVYYCHQYAWSPPTFGQGTKLEIK
# notes: Monoclonal antibody; also called B06 antibody; anti-MUC1 antibody B06
# B2: MUC1 G12 (antibody, V domains shown)
# VH: EVQLVQSGAEVKKPGATVKISCKVSGYTFTDHTMHWIKQRPGKGLEWMGYFYPRDDSTNYNEKFKGRVTLTADKSTDTAYMELSSLRSEDTAVYYCARGLRYALDYWGQGTLVTVSS
# VL: EIVLTQSPATLSLSPGERATLSCRASSSVGSSNLYWYQQKPGQAPRLWIYRSTKLASGVPARFSGSGSGTDYTLTISSLEPEDAAVYYCHQYRWSPPTFGQGTKLEIK
# notes: Monoclonal antibody; It was detected with an anti-human Fc secondary, and DSF reports CH2 and Fab regions
# B3: MUC1 H02 (antibody, V domains shown)
# VH: EVQLVQSGAEVKKPGATVKISCKVSGYTFTDHTMHWIKQRPGKGLEWMGYFYPRDDSTNYNEKFKGRVTLTADKSTDTAYMELSSLRSEDTAVYYCARGLRYALDYWGQGTLVTVSS
# VL: EIVLTQSPATLSLSPGERATLSCRASSSVSSSYLYWYQQKPGQAPRLWIIGTSNLASGVPARFSGSGSGTDYTLTISSLEPEDAAVYYCHQYSWSPPTFGQGTKLEIK
# notes: as for B2
# Columns and labels:
# Experiment in all cases: ELISA, peptide coated on plate, anti-Fc HRP detection
# [1] = target: T1, recombinant 20 mer MUC1 glycosylated-biotin (Tn (GalNac) antigen or sialyl Tn (Neu5Acα2-6GalNAc) antigen modifications on some of the S/T residues; biotin conjugated to the N-terminus)
# T1 construct: also called 20mer glycosylated MUC1 peptide
# T1 sequence (peptide, as listed by the source): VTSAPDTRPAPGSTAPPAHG
# Method: (§1) MUC1 ELISA: Antigens were coated directly on a Streptavidin (Pierce, 15500) or Maxisorp (VWR, 62409-024) 96-well plate at 100ng/well in PBS. Coated plates were incubated at 4° C. overnight. The plates were blocked with casein blocking buffer (Thermo Fisher, 37528) and washed with PBS-Tween-20. Antibodies were serially diluted in PBS, added to the coated wells and incubated for 1h at room temperature with shaking. To test for stickiness, antibodies were also added to uncoated, blocked wells. Peroxidase (HRP)-conjugated anti-Fc secondary (Jackson Immunoresearch, #109-035-098) was used for detection, followed by a […] substrate (Thermo Fisher, 34028) and H2S04 quench. Absorbance was read at 450 nm on a Molecular Devices plate reader.
# [2] = target: T2, recombinant 60 mer MUC1 non-glycosylated-biotin (biotin conjugated to the N-terminus)
# T2 construct: Not glycosylated; also called 60mer MUC1 non-glycosylated peptide
# T2 sequence (peptide, as listed by the source): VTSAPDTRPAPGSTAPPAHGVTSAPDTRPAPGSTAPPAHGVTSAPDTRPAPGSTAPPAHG
# Method: as §1
# decoy peptide = target: T3, decoy peptide (Tn (GalNac) antigen or sialyl Tn (Neu5Acα2-6GalNAc) antigen modifications on some of the S/T residues)
# T3 construct: also called glycosylated decoy peptide
# T3 peptide: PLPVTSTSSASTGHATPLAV
# Method: as §1
Binder,binding result [1],binding result [2],binding result (decoy peptide)
B1,binds,no binding,no binding
B2,binds,no binding,no binding
B3,binds,no binding,no binding
